± gives the standard deviation of the averaged measurements.
What follows are sequences tested on ATP (assay: switch fluorescence ratio, 500 uM ATP over buffer (Cy3 cluster intensity, sum of 5 cycles each) (fold (ratio)); higher = stronger signal-on switching upon ATP binding; sequences stand for … in TCGTCGGCAGCGTCAGATGTGTATAAGAGACAGTTTTTTTTTTTTTTTTTTTTTTTTT…TC). Conditions: aptamer strand: ATP DNA aptamer (quencher-CACCTGGGGGAGTATTGCGGAGGAAGG + anchor), 100 nM annealed; ATP concentration: 500 uM.
Outline: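 The quencher-labelled ATP aptamer, at 100 nM, was annealed to Cy3-labelled switching-strand clusters on a modified Illumina MiSeq flow-cell. The clusters were imaged in selection buffer, then after 15 min with 500 uM ATP at 22 °C, and this buffer/ATP cycle ran five times with NaOH stripping and re-annealing between runs. Per-cluster fluorescence ratios, summed target-cycle over summed buffer-cycle Cy3 intensity, were averaged per switch-domain sequence. Clusters outside 100-1000 RFU were excluded.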
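Note: ATP exposure 15 min at 22 °C before imaging.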

Sequence	switch fluorescence ratio
AAAGGGCGGG	1.016 ± 0.0049
AATAGCTATT	0.986 ± 0.023
ATAGTAGGCT	0.994 ± 0.011
CAGGGTTATT	0.995 ± 0.02
GCAAGGTTTT	0.979 ± 0.027
AAAAGCGGGT	0.997 ± 0.023
TTAATGAATA	1.01 ± 0.035
TGATAATAGT	0.989 ± 0.021
AATTCATGTA	0.9886 ± 0.0064
GATGGGGGTT	1 ± 0.012
AAGAAAGGCT	0.982 ± 0.033
GCATGTCGGG	1.03 ± 0.015
TCGGTTTTTT	1.01 ± 0.038
AGGGGCAAAG	1.01 ± 0.013
GGGGAGAAAG	0.9964 ± 0.0029
AAGGGTTCAC	0.9963 ± 0.0031
TTGTTACATG	1.012 ± 0.0051
TCCAGGGGTG	1.65 ± 0.025
AATAGGGGAG	1 ± 0.037
TGCAGGGAGT	1.04 ± 0.037
CCAAGAGGGC	1.04 ± 0.023
CAAATAGCTA	1.0363 ± 0.00014
GCGAACCCAA	1.18 ± 0.048
TAAGAGGCCT	1.02 ± 0.031
TTGGCATGCG	1.01 ± 0.021

Sequence	switch fluorescence ratio
TTTGCAGGCA	1.03 ± 0.011
GGGGCAGGTT	0.977 ± 0.038
ATCTGGGCGG	0.997 ± 0.029
GAGGATGGGG	0.977 ± 0.039
TTGGAGAAGG	0.998 ± 0.018
CGGGGGGCAC	0.999 ± 0.021
GATTGGGAGC	1.01 ± 0.037
GAGAAGTGTG	0.993 ± 0.038
TTTCTTAATT	1.4 ± 0.59
ATCTGGTTTG	0.955 ± 0.023
GCAGATTTTG	0.98 ± 0.038
GGGGGGTCTG	1 ± 0.037
TTTCGAGGGT	1.006 ± 0.0034
CTAGTTAAGT	0.991 ± 0.073
GGGTTTGGGC	1.01 ± 0.024
CCATACGTTG	1.037 ± 0.0051
TTTTACGTTG	0.995 ± 0.01
CGTTTACCGT	0.983 ± 0.019
TATTTATTGG	0.999 ± 0.012
GCGTCTTTGG	0.988 ± 0.026
GAGGTTATGC	0.968 ± 0.04
GCAGTCCTTT	0.958 ± 0.029
CGGGGGCGCA	0.9414 ± 0.007
AACAAACCGT	1.1 ± 0.017
CGGGGGGGAT	1.02 ± 0.026

Sequence	switch fluorescence ratio
TTAGAGGTAA	1.01 ± 0.019
ATTTTATGCG	0.985 ± 0.023
TATAAGAGTT	1.02 ± 0.035
TTTAGTGAG	1.02 ± 0.011
AGCCGAATTT	0.997 ± 0.019
TATGCCCAGC	1 ± 0.029
TTGAGGGGCA	1.01 ± 0.033
ATATTTATCG	1.01 ± 0.033
TAGTAGGAGG	0.9721 ± 0.0061
CTGCTGAGCA	1.03 ± 0.029
CAGGGGTTAT	1.01 ± 0.015
CGGTCTTGGG	0.9536 ± 0.0085
GGCCTCCGGT	1.09 ± 0.018
CAGCGGGGGG	1.01 ± 0.034
AGATTTATCC	0.977 ± 0.065
GGGTTGGAAG	1.02 ± 0.067
AAAACCCGA	1.01 ± 0.051
AAAATGGAGG	1.005 ± 0.0049
CATCGGGGTA	1.02 ± 0.029
TGTGGTCGGG	0.993 ± 0.038
ACGGGGGAGA	1.24 ± 0.35
CGTCTAGTCG	1 ± 0.025
ATTCGGGTTG	0.985 ± 0.029
CGGTCTGGTC	0.987 ± 0.018
TTGAATCGCG	1.0115 ± 0.00023

Sequence	switch fluorescence ratio
TAATAGAGCT	0.995 ± 0.03
ATGGTTGGGA	0.998 ± 0.024
ATATTGATAG	1 ± 0.0064
AGACAGCAGC	1.05 ± 0.011
AGGGTAATGC	1.11 ± 0.09
TTGGAAATTG	1.01 ± 0.019
TATTCAGAAA	1.02 ± 0.054
TGCAGTGCGT	1.0018 ± 9.8e-05
GCGGCTTCTC	1.018 ± 0.0072
CCGGGTTACT	1.91 ± 0.044
GGGGTCATGT	1.03 ± 0.015
AGGTATCCCT	1.01 ± 0.022
AGGCTTTCAG	0.9828 ± 0.0011
CGAATTTTTT	0.9539 ± 0.0064
CCGGGGGGAT	1.55 ± 0.66
CGTTGCGCTA	1.1 ± 0.012
TACCAACTTA	1.1 ± 0.033
AGGAAATGGG	1 ± 0.036
GAAGGGGGAA	1.02 ± 0.019
AATTTGTAGT	1.03 ± 0.025
TTTTTACGCA	1.154 ± 0.0098
GTTGATTTTT	0.982 ± 0.018
TCTGCCTAGG	1.13 ± 0.075
TAAATCGGGG	0.995 ± 0.049
CCAGAACCGG	1.01 ± 0.0022

From the supplement of paper PMC10126150
